The text below walks through data of the PETadex activity labels (doi:10.1073/pnas.2006753117).

Substrate in series [1]: MHET
Kind of series: Proxy for plastic degradation [kcat] (s⁻¹). The following applies: pH 7.5.

Substrate in series [2]: PET
Description: Proxy for plastic degradation [Released monomer concentration (HPLC/LC-MS) (BHET+MHET+TPA)]. The settings on record: pH 7.5; part of the chain shown.

B1: unnamed (protein)
chain: MQTTVTTMLLASVALAACAGGGSTPLPLPQQQPPQQEPPPPPVPLASRAACEALKDGNGDMVWPNAATVVEVAAWRDAAPATASAAALPEHCEVSGAIAKRTGIDGYPYEIKFRLRMPAEWNGRFFMEGGSGTNGSLSAATGSIGGGQIASALSRNFATIATDGGHDNAVNDNPDALGTVAFGLDPQARLDMGYNSYDQVTQAGKAAVARFYGRAADKSYFIGCSEGGREGMMLSQRFPSHYDGIVAGAPGYQLPKAGISGAWTTQSLAPAAVGLDAQGVPLINKSFSDADLHLLSQAILGTCDALDGLADGIVDNYRACQAAFDPATAANPANGQALQCVGAKTADCLSPVQVTAIKRAMAGPVNSAGTPLYNRWAWDAGMSGLSGTTYNQGWRSWWLGSFNSSANNAQRVSGFSARSWLVDFATPPEPMPMTQVAARMMKFDFDIDPLKIWATSGQFTQSSMDWHGATSTDLAAFRDRGGKMILYHGMSDAAFSALDTADYYERLGAAMPGAAGFARLFLVPGMNHCSGGPGTDRFDMLTPLVAWVERGEAPDQISAWSGTPGYFGVAARTRPLCPYPQIARYKGSGDINTEANFACAAPP
Regarding B1, the “Proxy for plastic degradation” value in series [1] (part of the chain shown) is 27.6; in series [2], 0 mM.

B2: unnamed (protein)
chain: MKSSIPISVGMLATALISGCGSVPDNTSNEPTVPLASKELCEGIASGATKVNWPNQNTVVKASVWHAVTPATANAPELPEHCEVTGSINQRTGVDGYPYEIKMRLRMPADWNGRFFMEGGGGTNGSLSAALGSLGGGQTSNALSRRFATVSTDGGHDNAVNNNPAALGSVAFGMDPQARLDHGYNSYDQVTLAGKSAVSTFYGRGPDKSYFIGCSEGGREGMMFSQRFPAHYDGIVAGAPGYQLPKAGISGAWTTQSLAPAAVGVDPDGAPLVNKSFSDPDLYLLTQAILGSCDALDGLADGIVGNYSACQSLFDPSTALNPATGQPLRCTGAKTDDCLSPVQVDAIKRAMSGPVDTAGTALYNKWPWDTGMSGLNGTTYFQGWRSWWLGSYDSSTNNAQRVNGSSARSWLVDFATPPEPVPLNQVATRMMNFDFDVDPPKIFATSGLFTQPSMQWHGATSTDLNAFRSRGGKLMLYHGMADAAFSALDTIAYYERLSTAMPSVSDFSRLFLVPGMGHCSGGPGTDRFDMLTPLVAWVENGTAPARVEASSSTPGYFGVSARSRPLCPHPQIARYTGSGDINEATNFVCGNP
For the protein B2, in series [1], the “Proxy for plastic degradation” value is 3.8.

B3: unnamed (protein)
chain: MNFPRASRLMQAAVLGGLMAVSAAATAQTNPYARGPNPTAASLEASAGPFTVRSFTVSRPSGYGAGTVYYPTNAGGTVGAIAIVPGYTARQSSIKWWGPRLASHGFVVITIDTNSTLDQPSSRSSQQMAALRQVASLNGTSSSPIYGKVDTARMGVMGCSMGGGGSLISAANNPSLKAAAPQAPWDSSTNFSSVTVPTLIFACENDSIAPVNSSALPIYDSMSRNAKQFLEINGGSHCCANSGNSNQALIGKKGVAWMKRFMDNDTRYSTFACENPNSTRVSDFRTANCS
Regarding B3, the “Proxy for plastic degradation” value in series [1] is 0.03.

B4: unnamed (protein)
chain: MNFPRASRLMQAAVLGGLMAVSAAATAQTNPYARGPNPTAASLEASAGPFTVRSFTVSRPSGYGAGTVYYPTNAGGTVGAIAIVPGYTARQSSIKWWGPRLASHGFVVITIDTNSTLDQPSSRSSQQMAALRQVASLNGTSSSPIYGKVDTARMGVMGWSMGGGGSLISAANNPSLKAAAPQAPWDSSTNFSSVTVPTLIFACENDSIAPVNSSALPIYDSMSRNAKQFLEINGGSHSCANSGNSNQALIGKKGVAWMKRFMDNDTRYSTFACENPNSTRVSDFRTANCS
With B4, in series [1] (part of the chain shown), the “Proxy for plastic degradation” value came to 0.
